Reference: IntAct's records for PubMed 16839886

B1: Guanine nucleotide-binding protein alpha-1 subunit (Saccharomyces cerevisiae), P08539 (parent)
chain: MGCTVSTQTIGDESDPFLQNKRANDVIEQSLQLEKQRDKNEIKLLLLGAGESGKSTVLKQLKLLHQGGFSHQERLQYAQVIWADAIQSMKILIIQARKLGIQLDCDDPINNKDLFACKRILLKAKALDYINASVAGGSDFLNDYVLKYSERYETRRRVQSTGRAKAAFDEDGNISNVKSDTDRDAETVTQNEDADRNNSSRINLQDICKDLNQEGDDQMFVRKTSREIQGQNRRNLIHEDIAKAIKQLWNNDKGIKQCFARSNEFQLEGSAAYYFDNIEKFASPNYVCTDEDILKGRIKTTGITETEFNIGSSKFKVLDAGGQRSERKKWIHCFEGITAVLFVLAMSEYDQMLFEDERVNRMHESIMLFDTLLNSKWFKDTPFILFLNKIDLFEEKVKSMPIRKYFPDYQGRVGDAEAGLKYFEKIFLSLNKTNKPIYVKRTCATDTQTMKFVLSAVTDLIIQQNLKKIGII
partner: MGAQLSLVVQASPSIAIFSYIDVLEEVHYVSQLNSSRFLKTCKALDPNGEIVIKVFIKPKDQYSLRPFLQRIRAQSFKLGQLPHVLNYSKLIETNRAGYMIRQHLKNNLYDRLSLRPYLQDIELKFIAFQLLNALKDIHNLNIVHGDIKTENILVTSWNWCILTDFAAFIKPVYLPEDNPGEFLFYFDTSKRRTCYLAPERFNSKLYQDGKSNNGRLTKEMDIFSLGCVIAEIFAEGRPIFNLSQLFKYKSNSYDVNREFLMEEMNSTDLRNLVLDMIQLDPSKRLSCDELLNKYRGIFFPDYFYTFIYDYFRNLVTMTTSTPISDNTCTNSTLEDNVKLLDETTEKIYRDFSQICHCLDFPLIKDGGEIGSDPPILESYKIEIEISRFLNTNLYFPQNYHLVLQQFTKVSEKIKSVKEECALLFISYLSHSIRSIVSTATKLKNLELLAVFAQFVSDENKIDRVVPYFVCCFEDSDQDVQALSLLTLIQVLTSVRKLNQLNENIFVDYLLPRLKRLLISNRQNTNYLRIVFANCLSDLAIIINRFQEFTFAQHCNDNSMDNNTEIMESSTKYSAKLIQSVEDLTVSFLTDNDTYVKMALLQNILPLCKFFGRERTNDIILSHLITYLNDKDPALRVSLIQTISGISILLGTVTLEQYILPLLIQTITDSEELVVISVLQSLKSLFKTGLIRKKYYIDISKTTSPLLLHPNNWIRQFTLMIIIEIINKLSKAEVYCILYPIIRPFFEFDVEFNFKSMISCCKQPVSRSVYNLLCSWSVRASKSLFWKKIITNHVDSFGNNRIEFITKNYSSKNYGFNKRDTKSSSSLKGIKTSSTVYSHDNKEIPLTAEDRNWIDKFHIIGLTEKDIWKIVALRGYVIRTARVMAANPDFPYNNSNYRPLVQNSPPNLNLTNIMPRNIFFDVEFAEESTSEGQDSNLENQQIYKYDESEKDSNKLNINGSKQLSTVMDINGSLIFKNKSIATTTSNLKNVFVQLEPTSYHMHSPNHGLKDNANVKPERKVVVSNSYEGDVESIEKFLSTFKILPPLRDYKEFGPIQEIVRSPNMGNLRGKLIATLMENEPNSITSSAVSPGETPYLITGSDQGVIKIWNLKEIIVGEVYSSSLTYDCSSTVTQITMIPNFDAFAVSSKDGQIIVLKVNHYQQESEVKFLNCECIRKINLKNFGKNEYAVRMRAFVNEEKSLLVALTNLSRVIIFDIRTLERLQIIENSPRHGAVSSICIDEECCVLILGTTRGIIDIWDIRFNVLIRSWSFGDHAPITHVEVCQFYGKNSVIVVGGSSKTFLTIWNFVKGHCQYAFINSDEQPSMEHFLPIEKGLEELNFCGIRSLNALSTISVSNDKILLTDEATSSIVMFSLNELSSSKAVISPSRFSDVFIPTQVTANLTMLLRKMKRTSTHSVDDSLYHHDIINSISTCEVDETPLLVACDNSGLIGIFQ

Variants of: B1
Settings: with vps15_yeast VPS15, P22219

| Variant | effect of a mutation on the interaction |
| --- | --- |
| Q323L | decreasing interaction |
